Test in all cases: BLI
In one assay the target is PAD K109A (UniProt Q96QC0).
The target of another assay is PAD K118A (UniProt Q96QC0).
Assay [1] has as its target PAD M141W (UniProt Q96QC0).
Assay [2] deals with PAD K122A (UniProt Q96QC0).
Assay [3] has as its target PAD M141F (UniProt Q96QC0).
Assay [4] has as its target PAD A114K (UniProt Q96QC0).
Assay [5] addresses PAD M141W (UniProt Q96QC0). This is another data set of the same source.
Assay [6] has as its target PAD A114K (UniProt Q96QC0). This is another data set of the same source.
Assay [7] addresses PAD K122A (UniProt Q96QC0). The source holds these as a separate data set.
The target in assay [8] is PAD M141F (UniProt Q96QC0). This is another data set of the same source.
PAD M141F, sequence (Q96QC0 1-148 M141F): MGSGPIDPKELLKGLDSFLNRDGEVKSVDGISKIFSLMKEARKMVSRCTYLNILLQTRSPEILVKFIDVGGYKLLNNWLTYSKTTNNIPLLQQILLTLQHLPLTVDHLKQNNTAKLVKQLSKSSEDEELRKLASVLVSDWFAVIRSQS

Read-outs that look alike come from different tables or passages of the source.

For orientation: Kd means the equilibrium constant for the complex coming apart.

PAD M141W, sequence (Q96QC0 1-148 M141W): as the sequence (Q96QC0 1-148 M141F) above, with F141W counted along it
PAD K122A, sequence (Q96QC0 1-148 K122A): as the sequence (Q96QC0 1-148 M141F) above, with K122A, F141M counted along it
PAD A114K, sequence (Q96QC0 1-148 A114K): as the sequence (Q96QC0 1-148 M141F) above, with A114K, F141M counted along it
PAD K109A, sequence (Q96QC0 1-148 K109A): as the sequence (Q96QC0 1-148 M141F) above, with K109A, F141M counted along it
PAD K118A, sequence (Q96QC0 1-148 K118A): as the sequence (Q96QC0 1-148 M141F) above, with K118A, F141M counted along it

As for “biotinyl-MB0 peptide (MYC 16-33) (from UniProt P01106-2 16-33)”, the Kd was determined as 27 µM with PAD K109A; 12 µM in the assay with PAD K118A; 24 µM with PAD M141W [1]; 35 µM with PAD K122A [2]; 19 µM with PAD M141F [3]; 52 µM with PAD A114K [4]. The Kd stood at 24 µM with PAD M141W [5], 52 µM in the assay with PAD A114K [6], 35 µM with PAD K122A [7] and 19 µM in the assay with PAD M141F [8].
